This assay deals with C4b (UniProt P0C0L4). Kind of assay: cell-based or functional assay.
C4b, sequence (P0C0L4 20-1744): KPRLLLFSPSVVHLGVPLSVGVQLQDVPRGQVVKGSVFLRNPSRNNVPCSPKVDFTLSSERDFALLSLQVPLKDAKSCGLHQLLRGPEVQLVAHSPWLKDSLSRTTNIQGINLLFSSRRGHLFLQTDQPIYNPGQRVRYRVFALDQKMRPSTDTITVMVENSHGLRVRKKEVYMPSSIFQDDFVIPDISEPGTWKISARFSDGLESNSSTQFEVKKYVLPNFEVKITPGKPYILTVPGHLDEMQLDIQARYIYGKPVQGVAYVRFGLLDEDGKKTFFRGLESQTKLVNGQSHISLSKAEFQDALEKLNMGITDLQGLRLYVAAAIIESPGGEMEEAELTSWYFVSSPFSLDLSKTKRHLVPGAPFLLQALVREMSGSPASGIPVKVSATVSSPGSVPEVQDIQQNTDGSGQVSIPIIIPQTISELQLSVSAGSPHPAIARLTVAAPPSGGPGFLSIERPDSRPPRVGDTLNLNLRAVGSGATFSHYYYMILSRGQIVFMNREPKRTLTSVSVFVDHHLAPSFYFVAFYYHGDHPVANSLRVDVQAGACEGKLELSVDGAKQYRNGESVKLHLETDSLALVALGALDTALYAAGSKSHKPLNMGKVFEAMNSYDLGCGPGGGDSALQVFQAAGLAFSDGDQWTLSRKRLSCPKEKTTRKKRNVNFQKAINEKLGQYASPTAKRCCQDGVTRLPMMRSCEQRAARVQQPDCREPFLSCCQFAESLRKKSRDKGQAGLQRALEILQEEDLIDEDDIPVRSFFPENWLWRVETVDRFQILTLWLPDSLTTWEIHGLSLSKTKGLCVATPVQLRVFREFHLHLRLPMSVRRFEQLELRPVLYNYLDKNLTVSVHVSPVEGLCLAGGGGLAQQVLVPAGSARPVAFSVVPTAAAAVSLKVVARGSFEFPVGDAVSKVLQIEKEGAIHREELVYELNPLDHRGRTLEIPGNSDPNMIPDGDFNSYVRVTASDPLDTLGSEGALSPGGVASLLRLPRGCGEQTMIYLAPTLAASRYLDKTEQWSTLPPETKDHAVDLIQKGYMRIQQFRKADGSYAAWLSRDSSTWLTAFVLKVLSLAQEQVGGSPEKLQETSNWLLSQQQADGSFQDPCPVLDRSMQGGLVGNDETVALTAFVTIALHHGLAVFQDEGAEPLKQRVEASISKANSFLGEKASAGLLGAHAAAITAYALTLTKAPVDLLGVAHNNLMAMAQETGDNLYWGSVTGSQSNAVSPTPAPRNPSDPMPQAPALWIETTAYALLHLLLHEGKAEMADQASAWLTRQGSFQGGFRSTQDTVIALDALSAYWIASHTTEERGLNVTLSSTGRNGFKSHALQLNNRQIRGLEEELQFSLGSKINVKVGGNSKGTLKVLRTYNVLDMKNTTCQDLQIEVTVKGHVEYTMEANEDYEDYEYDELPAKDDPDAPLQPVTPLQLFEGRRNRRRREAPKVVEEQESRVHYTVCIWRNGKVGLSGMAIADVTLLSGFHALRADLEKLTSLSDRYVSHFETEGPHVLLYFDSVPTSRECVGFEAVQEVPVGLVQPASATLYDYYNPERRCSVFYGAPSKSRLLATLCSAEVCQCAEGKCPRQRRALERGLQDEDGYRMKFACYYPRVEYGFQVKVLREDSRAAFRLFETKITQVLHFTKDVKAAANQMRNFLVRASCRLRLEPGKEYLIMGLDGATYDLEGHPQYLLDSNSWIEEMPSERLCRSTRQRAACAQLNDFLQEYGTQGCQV

Turning to “soluble human CR1 (from UniProt P17927 42-1971) (receptor)”, the time to 50% degradation of the C4bα′ chain (cofactor activity for factor I, densitometry) amounted to 15 min.
